Assay results published in patent publication US20230296569A1, “Substance quantification in complex mixtures” (ISA Pharmaceuticals B.V., priority 2021, published 2023).

assay: Peptide content (assay) of lyophilized drug product by UPLC-UV at 220 nm, conventional method (peptide as reference standard); format: physicochemical; settings: DP-7P batch, T0M, conventional method (peptide as RS)
Procedure: The purity including individual related substances and the assay of a DP-5P (5 peptides, SEQ ID NOs: 1-5) and DP-7P (7 peptides, SEQ ID NOs: 6-12) mixture were determined by reversed phase rapid HPLC (UPLC) using a mobile phase gradient of acetonitrile and water and UV detection at λ=220 nm.
• Column: RP C18, e.g. Waters Acquity, BEH 130 PST (1.7 μm, 150×2.1 mm) • Sample matrix Eluent A : Eluent B=85:15 (v/v). • Sample concentration 100 μg/mL net peptide (of each drug substance mixture), duplicate • Injection volume: 5 μL • Column temperature: 65° C. • Sample temperature: 5° C. • Detection: UV (λ=220 nm) • Flow rate: 0.3 mL/min • Eluent A: 0.05%v/v TFA and 1%v/v Acetonitrile (ACN) in water • Eluent B: 0.05%v/v TFA in ACN
The relative retention times (RRTs) assigned to peptides and related substances both in a DP-5P (SEQ ID NO: 1-5) and DP-7P (SEQ ID NO: 6-12) mixture was calculated with reference to the retention time of the peptide eluting in the middle (FIG. 1 and FIG. 2). That retention time was used as reference as the main peak of this drug substance was detected approx. in the center of the chromatogram. The related substances were determined by area normalization. The individual related substances were reported≥0.10%a/a. The total related substances were calculated as the sum of all individual related substances equal to or greater than a disregard limit of 0.0500%a/a. The purity was calculated as the difference between total related substances and 100%.
The assay of each of the peptides was calculated against a reference standard solution containing either five peptides (DP-5P) or seven peptides (DP-7P) and was expressed in percent and in mg net peptide/vial. For this reference method, the absorption ratio between the reference substance and the analyte is 1, because the reference substance is the analyte itself.
At T=0 months (TOM) the peptide content was measured using the conventional method of Example 2. From T=48 months (T48M) onwards the peptide content was measured with the conventional method of Example 2 and the method according to the invention of Example 3.

In order of falling “Assay (mg/vial)” value:
1. HYCYSLYGTTLEQQYNKPLCDLLIR (Peptide 7)  0.4393 mg/vial
2. DKKQRFHNIRGRWTGRCMSCCRSSRTRRETQL (Peptide 6)  0.4315 mg/vial
3. RDLCIVYRDGNPYAVCDKCLKFYSKI (Peptide 11)  0.4235 mg/vial
4. MHQKRTAMFQ QERPRKLPQLCTELQTTIHD (MHQKRTAMFQQERPRKLPQLCTELQTTIHD; Peptide 10)  0.4212 mg/vial

In order of falling “Label claim (% target 0.40 mg/vial)” value:
1. DKKQRFHNIRGRWTGRCMSCCRSSRTRRETQL (Peptide 6)  108%
2. HYCYSLYGTTLEQQYNKPLCDLLIR (Peptide 7)  107%
3. RDLCIVYRDGNPYAVCDKCLKFYSKI (Peptide 11)  106%
4. MHQKRTAMFQ QERPRKLPQLCTELQTTIHD (MHQKRTAMFQQERPRKLPQLCTELQTTIHD; Peptide 10)  105%

same assay, conditions: DP-7P batch, T48M, conventional method (peptide as RS)

In order of falling “Assay (mg/vial)” value:
1. DKKQRFHNIRGRWTGRCMSCCRSSRTRRETQL (Peptide 6)  0.4390 mg/vial
2. MHQKRTAMFQ QERPRKLPQLCTELQTTIHD (MHQKRTAMFQQERPRKLPQLCTELQTTIHD; Peptide 10)  0.4329 mg/vial
3. RDLCIVYRDGNPYAVCDKCLKFYSKI (Peptide 11)  0.4293 mg/vial
4. HYCYSLYGTTLEQQYNKPLCDLLIR (Peptide 7)  0.4279 mg/vial

In order of rising “Label claim (% target 0.40 mg/vial)” value:
1. HYCYSLYGTTLEQQYNKPLCDLLIR (Peptide 7)  107%
2. RDLCIVYRDGNPYAVCDKCLKFYSKI (Peptide 11)  107%
3. MHQKRTAMFQ QERPRKLPQLCTELQTTIHD (MHQKRTAMFQQERPRKLPQLCTELQTTIHD; Peptide 10)  108%
4. DKKQRFHNIRGRWTGRCMSCCRSSRTRRETQL (Peptide 6)  110%

same assay, conditions: DP-7P batch, T54M, conventional method (peptide as RS)

In order of falling “Assay (mg/vial)” value:
1. DKKQRFHNIRGRWTGRCMSCCRSSRTRRETQL (Peptide 6)  0.4280 mg/vial
2. MHQKRTAMFQ QERPRKLPQLCTELQTTIHD (MHQKRTAMFQQERPRKLPQLCTELQTTIHD; Peptide 10)  0.4271 mg/vial
3. HYCYSLYGTTLEQQYNKPLCDLLIR (Peptide 7)  0.4219 mg/vial
4. RDLCIVYRDGNPYAVCDKCLKFYSKI (Peptide 11)  0.4192 mg/vial

In order of falling “Label claim (% target 0.40 mg/vial)” value:
1. DKKQRFHNIRGRWTGRCMSCCRSSRTRRETQL (Peptide 6)  107%
2. MHQKRTAMFQ QERPRKLPQLCTELQTTIHD (MHQKRTAMFQQERPRKLPQLCTELQTTIHD; Peptide 10)  107%
3. HYCYSLYGTTLEQQYNKPLCDLLIR (Peptide 7)  105%
4. RDLCIVYRDGNPYAVCDKCLKFYSKI (Peptide 11)  105%

same assay, conditions: DP-7P batch, T60M, conventional method (peptide as RS)

In order of falling “Assay (mg/vial)” value:
1. MHQKRTAMFQ QERPRKLPQLCTELQTTIHD (MHQKRTAMFQQERPRKLPQLCTELQTTIHD; Peptide 10)  0.4362 mg/vial
2. DKKQRFHNIRGRWTGRCMSCCRSSRTRRETQL (Peptide 6)  0.4286 mg/vial
3. HYCYSLYGTTLEQQYNKPLCDLLIR (Peptide 7)  0.4222 mg/vial
4. RDLCIVYRDGNPYAVCDKCLKFYSKI (Peptide 11)  0.4209 mg/vial

In order of falling “Label claim (% target 0.40 mg/vial)” value:
1. MHQKRTAMFQ QERPRKLPQLCTELQTTIHD (MHQKRTAMFQQERPRKLPQLCTELQTTIHD; Peptide 10)  109%
2. DKKQRFHNIRGRWTGRCMSCCRSSRTRRETQL (Peptide 6)  107%
3. HYCYSLYGTTLEQQYNKPLCDLLIR (Peptide 7)  106%
4. RDLCIVYRDGNPYAVCDKCLKFYSKI (Peptide 11)  105%

assay: Peptide content (assay) of lyophilized drug product by UPLC-UV at 220 nm, method according to the invention (USP reserpine reference standard, RRF); format: physicochemical; settings: DP-7P batch, T48M, method according to the invention (USP RS)
Text: The UPLC method similar to Example 1 was used for the quantification of analytes (i.e. the individual peptides) in mixtures DP-5P (SEQ ID NO: 1-5) and DP-7P (SEQ ID NO: 6-12) and for the determination of content uniformity of mixtures DP-5P and DP-7P (lyophilized product). The method is based on the use of an external reference standard. The relative response factor (ratio of molar extinction coefficients, RRF) against this external reference standard has been established for each peptide. The purity, individual related substances, and the assay of DP-5P and DP-7P were determined by reversed phase rapid HPLC (UPLC) using a mobile phase gradient of ACN/IPA and water and UV detection at λ220 nm.
The following lyophilized peptide compositions were used: DP-5P comprising peptides represented herein by SEQ ID NO: 1-5 admixed at equal net weights of 0.40 mg of each peptide per vial (total amount of protein per vial being 2.00 mg) and 0.56 mg TFA per vial; and DP-7P comprising peptides represented herein by SEQ ID NO: 6-12 admixed at equal net weights of 0.40 mg of each peptide per vial (total amount of protein per vial being 2.80 mg) and 0.96 mg TFA per vial. The following chemicals were used: Acetonitrile, (Biosolve, 01204102); UPLC water, (Type 1, milli-Q); trifluoroacetic acid, (Chem Lab, CLoo.2094.0001), 2-propanol, (UPLC/MS grade, Biosolve, 16264102); Reserpine, (USP, Sigma Aldrich, 1601000). The following equipment was used: QuanRecovery vials, (Waters, 186009186); UPLC pump equipped with a gradient system, autosampler, and UV detection (Waters Acquity or equivalent) and mixer volume 425 μL.
• Mobile phase A: 0.1% (v/v) TFA in water • Mobile phase B: 0.1% (v/v) TFA in 70/30 ACN/IPA • Diluent A: 0.05% (v/v) TFA in water • Diluent B: 0.05% (v/v) TFA in ACN • Blank solution: 80/20 (v/v) diluent A/diluent B • Purge solvent: 80/20 (v/v) water/ACN • Needle wash: 0.05% (v/v) TFA in 80/20 (v/v) water/ACN
5.00 mg Reserpine reference material was accurately weighed and added into a 50 mL volumetric flask. 40.0 mL of blank solution was added, by means of a volumetric pipette. The solution was stirred for 10 min, by means of a magnetic stirrer, until fully dissolved. The solution was diluted to volume with blank solution and mixed well.
Transfer of 2.0 mL, by means of a volumetric pipette, of stock reference solution 1 into a 20 mL volumetric flask. Diluted to volume with blank solution and homogenized.
This sample preparation was setup for lyophilized products DP-5P and DP-7P in an initially sealed container. Before opening and dissolving the drug product, the vials were equilibrated at room temperature for at least 1 hour. The content of the vial was dissolved with 0.8 mL of diluent B, and stirred for 20 min, using a magnetic stirrer. 3.2 mL of diluent A were added. The solution was stirred well for 20 min, using a magnetic stirrer. After dissolving the content of the vial, the sample vial was kept on the lab bench for 30 minutes. The solution was stirred briefly and transferred into an HPLC vial.
• Column: Advance Bio Peptide Map (2.7 μm, 250 x 2.1 mm) • Sample matrix 0.05%v/v TFA in ACN : water (1:4 v/v) • Sample concentration 100 μg/mL net peptide (of each drug substance), duplicate • Injection volume: 10 μL • Column temperature: 40° C. • Sample temperature: 5° C. • Detection: UV (λ=220 nm) • Flow rate: 0.2 mL/min • Run time: 65 min • Purge solvent: 80/20 (v/v) water/ACN • Needle wash: 0.05% (v/v) TFA in 80/20 water/ACN (v/v) (20 s) • Seal wash: 90/10 (v/v) water/MeOH • Elution mode: Gradient elution • Eluent A: 0.1%v/v TFA in water • Eluent B: 0.1%v/v TFA in ACN/IPA (70:30 v/v)
The RRF was determined for all 12 peptides, enabling the quantification of each peptide against a reserpine as shown above. For the determination, the absorbance of each peptide in a solution comprising said peptide at a known concentration, and of a reference standard solution comprising reserpine at a known concentration, were measured at 220 nm. […]

In order of rising “Assay (mg/vial)” value:
1. RDLCIVYRDGNPYAVCDKCLKFYSKI (Peptide 11)  0.3866 mg/vial
2. HYCYSLYGTTLEQQYNKPLCDLLIR (Peptide 7)  0.4036 mg/vial
3. MHQKRTAMFQ QERPRKLPQLCTELQTTIHD (MHQKRTAMFQQERPRKLPQLCTELQTTIHD; Peptide 10)  0.4060 mg/vial
4. DKKQRFHNIRGRWTGRCMSCCRSSRTRRETQL (Peptide 6)  0.4100 mg/vial

In order of falling “Label claim (% target 0.40 mg/vial)” value:
1. DKKQRFHNIRGRWTGRCMSCCRSSRTRRETQL (Peptide 6)  103%
2. MHQKRTAMFQ QERPRKLPQLCTELQTTIHD (MHQKRTAMFQQERPRKLPQLCTELQTTIHD; Peptide 10)  101%
3. HYCYSLYGTTLEQQYNKPLCDLLIR (Peptide 7)  101%
4. RDLCIVYRDGNPYAVCDKCLKFYSKI (Peptide 11)  97%

same assay, conditions: DP-7P batch, T54M, method according to the invention (USP RS)

In order of falling “Assay (mg/vial)” value:
1. DKKQRFHNIRGRWTGRCMSCCRSSRTRRETQL (Peptide 6)  0.4033 mg/vial
2. HYCYSLYGTTLEQQYNKPLCDLLIR (Peptide 7)  0.3980 mg/vial
3. MHQKRTAMFQ QERPRKLPQLCTELQTTIHD (MHQKRTAMFQQERPRKLPQLCTELQTTIHD; Peptide 10)  0.3966 mg/vial
4. RDLCIVYRDGNPYAVCDKCLKFYSKI (Peptide 11)  0.3815 mg/vial

In order of rising “Label claim (% target 0.40 mg/vial)” value:
1. RDLCIVYRDGNPYAVCDKCLKFYSKI (Peptide 11)  95%
2. MHQKRTAMFQ QERPRKLPQLCTELQTTIHD (MHQKRTAMFQQERPRKLPQLCTELQTTIHD; Peptide 10)  99%
3. HYCYSLYGTTLEQQYNKPLCDLLIR (Peptide 7)  99%
4. DKKQRFHNIRGRWTGRCMSCCRSSRTRRETQL (Peptide 6)  101%

same assay, conditions: DP-7P batch, T60M, method according to the invention (USP RS)

In order of falling “Assay (mg/vial)” value:
1. DKKQRFHNIRGRWTGRCMSCCRSSRTRRETQL (Peptide 6)  0.4010 mg/vial
2. HYCYSLYGTTLEQQYNKPLCDLLIR (Peptide 7)  0.3967 mg/vial
3. MHQKRTAMFQ QERPRKLPQLCTELQTTIHD (MHQKRTAMFQQERPRKLPQLCTELQTTIHD; Peptide 10)  0.3945 mg/vial
4. RDLCIVYRDGNPYAVCDKCLKFYSKI (Peptide 11)  0.3788 mg/vial

In order of rising “Label claim (% target 0.40 mg/vial)” value:
1. RDLCIVYRDGNPYAVCDKCLKFYSKI (Peptide 11)  95%
2. MHQKRTAMFQ QERPRKLPQLCTELQTTIHD (MHQKRTAMFQQERPRKLPQLCTELQTTIHD; Peptide 10)  99%
3. HYCYSLYGTTLEQQYNKPLCDLLIR (Peptide 7)  99%
4. DKKQRFHNIRGRWTGRCMSCCRSSRTRRETQL (Peptide 6)  100%
